Results as given in US9708375 (Amgen, dated 2017).
Changes are numbered by the printed parent chain. Names may count otherwise.

T1: biotin labeled human recombinant Sclerostin (human, UniProt Q9BQB4 24-213)
T1 construct: also called human Sclerostin; huSOST
T1 sequence (looked up): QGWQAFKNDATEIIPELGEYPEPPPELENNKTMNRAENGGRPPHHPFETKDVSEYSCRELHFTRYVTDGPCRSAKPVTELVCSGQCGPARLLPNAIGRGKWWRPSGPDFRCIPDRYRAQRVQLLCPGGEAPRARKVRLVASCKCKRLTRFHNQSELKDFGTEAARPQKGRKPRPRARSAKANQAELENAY

B1: P7068 (bispecific antibody, human IgG2, lambda)
heavy: SGGSCPAYTEFLCKDSDRCFPSEWRCDGEMDCVDGSDELHCAYHTCAPNQFRCNSYDKCVPAHWVCDGVLDCLDSSDETNCSAPASEPPGSLSQVQLVESGGGVVQPGRSLRLSCAASGFTFSRYDMHWVRQAPGKGLEWVAIIFYDGSNKYYADPVKGRFTISRDNSKNTLYLQMNSLRAEDTAVYYCATLAAAFDYWGQGTLVTVSSASTKGPSVFPLAPCSRSTSESTAALGCLVKDYFPEPVTVSWNSGALTSGVHTFPAVLQSSGLYSLSSVVTVPSSNFGTQTYTCNVDHKPSNTKVDKTVERKCCVECPPCPAPPVAGPSVFLFPPKPKDTLMISRTPEVTCVVVDVSHEDPEVQFNWYVDGVEVHNAKTKPREEQFNSTFRVVSVLTVVHQDWLNGKEYKCKVSNKGLPAPIEKTISKTKGQPREPQVYTLPPSREEMTKNQVSLTCLVKGFYPSDIAVEWESNGQPENNYKTTPPMLDSDGSFFLYSKLTVDKSRWQQGNVFSCSVMHEALHNHYTQKSLSLSPGK
light: YVLTQPPSVSVAPGQTARITCGGNNIGSKSVHWYQQKPGQAPVLVVYDDSDRPSEIPERFSGSNSGNTATLTISRVEAGDEADYYCQVWDSSSDHVVFGGGTRLTVLGQPKAAPSVTLFPPSSEELQANKATLVCLISDFYPGAVTVAWKADSSPVKAGVETTTPSKQSNNKYAASSYLSLTPEQWKSHRSYSCQVTHEGSTVEKTVAPTECS
notes: also called P7011; Ab-Avimer-1 (P7068A)
B2: P7649 (bispecific antibody, human IgG2, lambda)
heavy: QVQLVESGGGVVQPGRSLRLSCAASGFTFSRYDMHWVRQAPGKGLEWVAIIFYDGSNKYYADPVKGRFTISRDNSKNTLYLQMNSLRAEDTAVYYCATLAAAFDYWGQGTLVTVSSASTKGPSVFPLAPCSRSTSESTAALGCLVKDYFPEPVTVSWNSGALTSGVHTFPAVLQSSGLYSLSSVVTVPSSNFGTQTYTCNVDHKPSNTKVDKTVERKCCVECPPCPAPPVAGPSVFLFPPKPKDTLMISRTPEVTCVVVDVSHEDPEVQFNWYVDGVEVHNAKTKPREEQFNSTFRVVSVLTVVHQDWLNGKEYKCKVSNKGLPAPIEKTISKTKGQPREPQVYTLPPSREEMTKNQVSLTCLVKGFYPSDIAVEWESNGQPENNYKTTPPMLDSDGSFFLYSKLTVDKSRWQQGNVFSCSVMHEALHNHYTQKSLSLSPGSSGGSCAPNQFRCNSYDKCVPAHWVCDGVLDCLDSSDETNCSAPASEPPGSLCPAYTEFLCKDSDRCFPSEWRCDGEMDCVDGSDELHCAYHTSLQ
light: B1 light
notes: also called C140159
B3: P7079 (bispecific antibody, human IgG2, lambda)
heavy: QVQLVESGGGVVQPGRSLRLSCAASGFTFSRYDMHWVRQAPGKGLEWVAIIFYDGSNKYYADPVKGRFTISRDNSKNTLYLQMNSLRAEDTAVYYCATLAAAFDYWGQGTLVTVSSASTKGPSVFPLAPCSRSTSESTAALGCLVKDYFPEPVTVSWNSGALTSGVHTFPAVLQSSGLYSLSSVVTVPSSNFGTQTYTCNVDHKPSNTKVDKTVERKCCVECPPCPAPPVAGPSVFLFPPKPKDTLMISRTPEVTCVVVDVSHEDPEVQFNWYVDGVEVHNAKTKPREEQFNSTFRVVSVLTVVHQDWLNGKEYKCKVSNKGLPAPIEKTISKTKGQPREPQVYTLPPSREEMTKNQVSLTCLVKGFYPSDIAVEWESNGQPENNYKTTPPMLDSDGSFFLYSKLTVDKSRWQQGNVFSCSVMHEALHNHYTQKSLSLSPGKSSGGSCAPNQFRCNSYDKCVPAHWVCDGVLDCLDSSDETNCSAPASEPPGSLCPAYTEFLCKDSDRCFPSEWRCDGEMDCVDGSDELHCAYHTSLQ
light: B1 light
notes: also called P6887; Ab-Avimer-6 (P7079A)
B4: P7070 (bispecific antibody, human IgG2, lambda)
heavy: QVQLVESGGGVVQPGRSLRLSCAASGFTFSRYDMHWVRQAPGKGLEWVAIIFYDGSNKYYADPVKGRFTISRDNSKNTLYLQMNSLRAEDTAVYYCATLAAAFDYWGQGTLVTVSSASTKGPSVFPLAPCSRSTSESTAALGCLVKDYFPEPVTVSWNSGALTSGVHTFPAVLQSSGLYSLSSVVTVPSSNFGTQTYTCNVDHKPSNTKVDKTVERKCCVECPPCPAPPVAGPSVFLFPPKPKDTLMISRTPEVTCVVVDVSHEDPEVQFNWYVDGVEVHNAKTKPREEQFNSTFRVVSVLTVVHQDWLNGKEYKCKVSNKGLPAPIEKTISKTKGQPREPQVYTLPPSREEMTKNQVSLTCLVKGFYPSDIAVEWESNGQPENNYKTTPPMLDSDGSFFLYSKLTVDKSRWQQGNVFSCSVMHEALHNHYTQKSLSLSPGKSSGGSWCPPNHFMCNSYDKCVPAHWFCDGVLDCLDSSDETNCSAPASEPPGSLCPAYTEFLCKDSDRCFPSEWRCDGEMDCVDGSDELHCAYHTSLQ
light: B1 light
notes: also called P6992; Ab-Avimer-3 (P7070A)
B5: P7069 (bispecific antibody, human IgG2, lambda)
heavy: QVQLVESGGGVVQPGRSLRLSCAASGFTFSRYDMHWVRQAPGKGLEWVAIIFYDGSNKYYADPVKGRFTISRDNSKNTLYLQMNSLRAEDTAVYYCATLAAAFDYWGQGTLVTVSSASTKGPSVFPLAPCSRSTSESTAALGCLVKDYFPEPVTVSWNSGALTSGVHTFPAVLQSSGLYSLSSVVTVPSSNFGTQTYTCNVDHKPSNTKVDKTVERKCCVECPPCPAPPVAGPSVFLFPPKPKDTLMISRTPEVTCVVVDVSHEDPEVQFNWYVDGVEVHNAKTKPREEQFNSTFRVVSVLTVVHQDWLNGKEYKCKVSNKGLPAPIEKTISKTKGQPREPQVYTLPPSREEMTKNQVSLTCLVKGFYPSDIAVEWESNGQPENNYKTTPPMLDSDGSFFLYSKLTVDKSRWQQGNVFSCSVMHEALHNHYTQKSLSLSPGKSSGGSCPAYTEFLCKDSDRCFPSEWRCDGEMDCVDGSDELHCAYHTCAPNQFRCNSYDKCVPAHWVCDGVLDCLDSSDETNCSAPASEPPGSLSLQ
light: B1 light
notes: also called P6991; Ab-Avimer-2 (P7069A)
B6: P7078 (bispecific antibody, human IgG2, lambda)
heavy: SGGSWCPPNHFMCNSYDKCVPAHWFCDGVLDCLDSSDETNCSAPASEPPGSLCPAYTEFLCKDSDRCFPSEWRCDGEMDCVDGSDELHCAYHTSQVQLVESGGGVVQPGRSLRLSCAASGFTFSRYDMHWVRQAPGKGLEWVAIIFYDGSNKYYADPVKGRFTISRDNSKNTLYLQMNSLRAEDTAVYYCATLAAAFDYWGQGTLVTVSSASTKGPSVFPLAPCSRSTSESTAALGCLVKDYFPEPVTVSWNSGALTSGVHTFPAVLQSSGLYSLSSVVTVPSSNFGTQTYTCNVDHKPSNTKVDKTVERKCCVECPPCPAPPVAGPSVFLFPPKPKDTLMISRTPEVTCVVVDVSHEDPEVQFNWYVDGVEVHNAKTKPREEQFNSTFRVVSVLTVVHQDWLNGKEYKCKVSNKGLPAPIEKTISKTKGQPREPQVYTLPPSREEMTKNQVSLTCLVKGFYPSDIAVEWESNGQPENNYKTTPPMLDSDGSFFLYSKLTVDKSRWQQGNVFSCSVMHEALHNHYTQKSLSLSPGK
light: B1 light
notes: also called P6886; Ab-Avimer-5 (P7078A)
B7: P7656 (bispecific antibody, human IgG2, lambda)
heavy: QVQLVESGGGVVQPGRSLRLSCAASGFTFSRYDMHWVRQAPGKGLEWVAIIFYDGSNKYYADPVKGRFTISRDNSKNTLYLQMNSLRAEDTAVYYCATLAAAFDYWGQGTLVTVSSASTKGPSVFPLAPCSRSTSESTAALGCLVKDYFPEPVTVSWNSGALTSGVHTFPAVLQSSGLYSLSSVVTVPSSNFGTQTYTCNVDHKPSNTKVDKTVERKCCVECPPCPAPPVAGPSVFLFPPKPKDTLMISRTPEVTCVVVDVSHEDPEVQFNWYVDGVEVHNAKTKPREEQFNSTFRVVSVLTVVHQDWLNGKEYKCKVSNKGLPAPIEKTISKTKGQPREPQVYTLPPSREEMTKNQVSLTCLVKGFYPSDIAVEWESNGQPENNYKTTPPMLDSDGSFFLYSKLTVDKSRWQQGNVFSCSVMHEALHNHYTQKSLSLSPGKSSGGSCAPNQFRCNSYDKCVPAHWVCDGVLDCLDSSDETNCGGGGSGGGGSCPAYTEFLCKDSDRCFPSEWRCDGEMDCVDGSDELHC
light: B1 light
notes: also called C140166
B8: P7650 (bispecific antibody, human IgG2, lambda)
heavy: B2 heavy with A448G, P449R, N450D, Q451H, N455R, V466L, N481Y
light: B1 light
notes: also called C140160
B9: P7077 (bispecific antibody, human IgG2, lambda)
heavy: B3 heavy with A449G, P450R, N451D, Q452H, N456R, V467L, N482Y
light: B1 light
notes: also called P6888; Ab-Avimer-4 (P7077A)
B10: P7653 (bispecific antibody, human IgG2, lambda)
heavy: B1 heavy with K14A, R18A, R25A, R52A, K58A
light: B1 light
notes: also called C140163
B11: P7651 (bispecific antibody, human IgG2, lambda)
heavy: B3 heavy with K504A
light: B1 light
notes: also called C140161
B12: P7654 (bispecific antibody, human IgG2, lambda)
heavy: B3 heavy with R454A, K504A, R508A, R515A
light: B1 light
notes: also called C140164
B13: P7080 (bispecific antibody, human IgG2, lambda)
light: YVLTQPPSVSVAPGQTARITCGGNNIGSKSVHWYQQKPGQAPVLVVYDDSDRPSEIPERFSGSNSGNTATLTISRVEAGDEADYYCQVWDSSSDHVVFGGGTRLTVLGQPKAAPSVTLFPPSSEELQANKATLVCLISDFYPGAVTVAWKADSSPVKAGVETTTPSKQSNNKYAASSYLSLTPEQWKSHRSYSCQVTHEGSTVEKTVAPTECSSSGGSCPAYTEFLCKDSDRCFPSEWRCDGEMDCVDGSDELHCAYHTCAPNQFRCNSYDKCVPAHWVCDGVLDCLDSSDETNCSAPASEPPGSLSLQ
heavy: QVQLVESGGGVVQPGRSLRLSCAASGFTFSRYDMHWVRQAPGKGLEWVAIIFYDGSNKYYADPVKGRFTISRDNSKNTLYLQMNSLRAEDTAVYYCATLAAAFDYWGQGTLVTVSSASTKGPSVFPLAPCSRSTSESTAALGCLVKDYFPEPVTVSWNSGALTSGVHTFPAVLQSSGLYSLSSVVTVPSSNFGTQTYTCNVDHKPSNTKVDKTVERKCCVECPPCPAPPVAGPSVFLFPPKPKDTLMISRTPEVTCVVVDVSHEDPEVQFNWYVDGVEVHNAKTKPREEQFNSTFRVVSVLTVVHQDWLNGKEYKCKVSNKGLPAPIEKTISKTKGQPREPQVYTLPPSREEMTKNQVSLTCLVKGFYPSDIAVEWESNGQPENNYKTTPPMLDSDGSFFLYSKLTVDKSRWQQGNVFSCSVMHEALHNHYTQKSLSLSPGK
notes: also called P7009; Ab-Avimer-7 (P7080A)
B14: P7652 (bispecific antibody, human IgG2, lambda)
light: B13 light with K228A
heavy: B13 heavy
notes: also called C140162

Biological target: T1, biotin labeled human recombinant …
Test: AlphaScreen Sclerostin/LRP-6 inhibition

Row | binding result | Binder
1 | binds | B1
2 | binds | B2
3 | binds | B3
4 | binds | B4
5 | binds | B5
6 | binds | B6
7 | binds | B7
8 | binds | B8
9 | binds | B9
10 | binds | B10
11 | binds | B11
12 | binds | B12
13 | binds | B13
14 | binds | B14
